Results published in US20220273711A1 (University of Washington, published 2022).

B1: Bim_EGFR (EGFR DARPin tagged with N-terminal Bim peptide) (designed binder)
chain: MGSHHHHHHGSGSENLYFQGSTDEIWIAQELRRIGDEFNAYYASGSGDLGKKLLEAARAGQDDEVRILMANGADVNADDTWGWTPLHLAAYQGHLEIVEVLLKNGADVNAYDYIGWTPLHLAADGHLEIVEVLLKNGADVNASDYIGDTPLHLAAHNGHLEIVEVLLKHGADVNAQDKFGKTAFDISIDNGNEDLAEILQKLN
notes: also called anti-EGFR DARPin with N-terminal fusion to Bim; Bim-DARPin
B2: Bim_Her2 (Her2 DARPin tagged with N-terminal Bim peptide) (designed binder)
chain: MGSHHHHHHGSGSENLYFQGSTDEIWIAQELRRIGDEFNAYYASGSGDLGKKLLEAARAGQDDEVRILMANGADVNAKDEYGLTPLYLATAHGHLEIVEVLLKNGADVNAVDAIGFTPLHLAAFIGHLEIAEVLLKHGADVNAQDKFGKTAFDISIGNGNEDLAEILQKLN
notes: also called Anti-Her2 DARPin with N-terminal fusion to Bim; Bim-DARPin

Legend:
[1] = target: T1, EGFR-iRFP (hsEGFR_ecd_tm-iRFP) (human (hs)); experiment: flow cytometry; Bim-DARPin pre-complexed with Bcl2-AF594, 3-fold dilutions from 300 nM to 0.4 nM, mixed K562 cells expressing Her2-eGFP, EGFR-iRFP, both or neither
T1 construct: Expressed on K562 cells by lentiviral transduction; also called EGFR-iRFP on K562 cells
Experimental: (§1) FIG. 16. DARPin binder affinity measured by flow cytometry. Anti-Her2 or anti-EGFR DARPins with N-terminal fusions to Bim were pre-complexed with Bcl2-AF594 and serially diluted 3-fold from 300 nM down to 0.4 nM. This dilution series was used to label a mixed population of K562 cells expressing Her2-eGFP, EGFR-iRFP, both, or neither for one hour at room temperature in a 50 μl incubation volume. The cells were then washed in PBS supplemented with 0.1% bovine serum albumin and analyzed on an LSRII flow cytometer.

[2] = target: T2, Her2-eGFP (hsHER2_ecd_tm-eGFP) (human (hs)); experiment: as above
T2 construct: Expressed on K562 cells by lentiviral transduction; also called Her2-eGFP on K562 cells
Experimental: as §1

T1 sequence (chain, as listed by the source limits assumed): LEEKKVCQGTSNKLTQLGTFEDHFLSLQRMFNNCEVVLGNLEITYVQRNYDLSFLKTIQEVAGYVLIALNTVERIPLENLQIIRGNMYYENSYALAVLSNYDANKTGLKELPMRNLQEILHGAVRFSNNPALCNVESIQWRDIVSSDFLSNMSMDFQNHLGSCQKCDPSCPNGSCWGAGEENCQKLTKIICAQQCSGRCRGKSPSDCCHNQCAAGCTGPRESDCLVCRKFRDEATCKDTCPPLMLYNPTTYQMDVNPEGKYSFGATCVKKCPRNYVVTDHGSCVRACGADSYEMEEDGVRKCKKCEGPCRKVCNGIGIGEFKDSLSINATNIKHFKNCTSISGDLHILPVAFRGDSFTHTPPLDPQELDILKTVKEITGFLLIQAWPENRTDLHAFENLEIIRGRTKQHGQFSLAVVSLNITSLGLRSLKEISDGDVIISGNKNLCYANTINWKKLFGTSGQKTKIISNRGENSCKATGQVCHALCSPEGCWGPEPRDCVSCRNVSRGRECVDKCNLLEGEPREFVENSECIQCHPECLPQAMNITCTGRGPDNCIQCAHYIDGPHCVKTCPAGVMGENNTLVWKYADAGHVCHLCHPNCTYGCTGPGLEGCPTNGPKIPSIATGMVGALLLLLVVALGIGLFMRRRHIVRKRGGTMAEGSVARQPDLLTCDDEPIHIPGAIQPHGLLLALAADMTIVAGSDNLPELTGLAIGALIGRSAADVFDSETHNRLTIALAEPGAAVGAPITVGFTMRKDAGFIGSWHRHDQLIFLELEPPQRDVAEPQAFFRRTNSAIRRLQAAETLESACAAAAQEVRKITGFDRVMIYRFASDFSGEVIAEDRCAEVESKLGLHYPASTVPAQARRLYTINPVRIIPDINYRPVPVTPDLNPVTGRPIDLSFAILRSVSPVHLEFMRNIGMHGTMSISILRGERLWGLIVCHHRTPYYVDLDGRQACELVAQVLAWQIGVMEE

Binder | Kd [1] [nM] | Kd [2] [nM]
B1 | ~10 | –
B2 | – | ~10
